{"source": "patent US20080226630A1", "about": "(SYMPHOGEN A S, published 2008)", "key": {"[1]": {"biological_target": "T1, recombinant human fractalkine (CX3CL1; R&D systems) (human, UniProt P78423 25-100)", "T1 sequence (looked up)": "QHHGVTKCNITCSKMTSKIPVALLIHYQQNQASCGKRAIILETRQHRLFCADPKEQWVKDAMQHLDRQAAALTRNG", "assay": "ELISA on recombinant human fractalkine"}, "[2]": {"biological_target": "T2, G protein of RSV strain 18537 (subtype B) (human respiratory syncytial virus …, UniProt P20896 1-292)", "T2 sequence": "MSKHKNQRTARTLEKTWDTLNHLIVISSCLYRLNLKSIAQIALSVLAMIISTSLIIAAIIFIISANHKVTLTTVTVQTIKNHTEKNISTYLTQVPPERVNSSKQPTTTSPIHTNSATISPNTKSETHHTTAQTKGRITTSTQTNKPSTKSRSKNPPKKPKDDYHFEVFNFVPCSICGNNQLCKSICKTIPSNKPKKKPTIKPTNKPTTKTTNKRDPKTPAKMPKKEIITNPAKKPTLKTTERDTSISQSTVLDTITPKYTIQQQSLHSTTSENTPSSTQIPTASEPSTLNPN", "assay": "cell-based or functional assay"}, "[3]": {"biological_target": "T3, G protein of RSV strain Long (subtype A) (human respiratory syncytial virus …, UniProt P20895 1-298)", "T3 chain": "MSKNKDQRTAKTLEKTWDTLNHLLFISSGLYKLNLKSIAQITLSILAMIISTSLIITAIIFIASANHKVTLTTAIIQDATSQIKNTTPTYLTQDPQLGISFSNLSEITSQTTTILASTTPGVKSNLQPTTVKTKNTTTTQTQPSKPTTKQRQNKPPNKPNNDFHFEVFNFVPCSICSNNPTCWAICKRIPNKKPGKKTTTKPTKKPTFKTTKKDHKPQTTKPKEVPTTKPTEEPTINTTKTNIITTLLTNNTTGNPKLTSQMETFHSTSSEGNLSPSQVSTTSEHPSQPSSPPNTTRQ", "assay": "cell-based or functional assay"}, "[4]": {"biological_target": "F protein of RSV strain Long (human respiratory syncytial virus …, UniProt P12568 26-574)", "sequence (P12568 26-574)": "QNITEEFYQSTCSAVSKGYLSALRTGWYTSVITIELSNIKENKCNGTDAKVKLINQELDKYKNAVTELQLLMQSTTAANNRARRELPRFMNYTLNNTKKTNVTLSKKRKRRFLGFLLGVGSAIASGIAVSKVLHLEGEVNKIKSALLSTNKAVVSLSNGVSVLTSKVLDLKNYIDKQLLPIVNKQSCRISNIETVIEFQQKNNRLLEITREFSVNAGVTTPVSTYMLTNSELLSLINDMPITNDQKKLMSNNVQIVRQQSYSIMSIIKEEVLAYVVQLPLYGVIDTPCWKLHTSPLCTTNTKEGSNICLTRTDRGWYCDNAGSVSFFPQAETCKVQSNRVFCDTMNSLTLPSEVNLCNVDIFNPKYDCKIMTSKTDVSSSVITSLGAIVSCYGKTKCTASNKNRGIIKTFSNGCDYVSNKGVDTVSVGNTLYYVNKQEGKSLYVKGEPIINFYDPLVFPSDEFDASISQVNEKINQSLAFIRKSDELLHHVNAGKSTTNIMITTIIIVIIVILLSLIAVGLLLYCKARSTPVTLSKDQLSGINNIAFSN", "assay": "cell-based or functional assay"}, "[5]": {"biological_target": "F protein of RSV strain 18537 (human respiratory syncytial virus …, UniProt P13843 26-574)", "sequence (P13843 26-574)": "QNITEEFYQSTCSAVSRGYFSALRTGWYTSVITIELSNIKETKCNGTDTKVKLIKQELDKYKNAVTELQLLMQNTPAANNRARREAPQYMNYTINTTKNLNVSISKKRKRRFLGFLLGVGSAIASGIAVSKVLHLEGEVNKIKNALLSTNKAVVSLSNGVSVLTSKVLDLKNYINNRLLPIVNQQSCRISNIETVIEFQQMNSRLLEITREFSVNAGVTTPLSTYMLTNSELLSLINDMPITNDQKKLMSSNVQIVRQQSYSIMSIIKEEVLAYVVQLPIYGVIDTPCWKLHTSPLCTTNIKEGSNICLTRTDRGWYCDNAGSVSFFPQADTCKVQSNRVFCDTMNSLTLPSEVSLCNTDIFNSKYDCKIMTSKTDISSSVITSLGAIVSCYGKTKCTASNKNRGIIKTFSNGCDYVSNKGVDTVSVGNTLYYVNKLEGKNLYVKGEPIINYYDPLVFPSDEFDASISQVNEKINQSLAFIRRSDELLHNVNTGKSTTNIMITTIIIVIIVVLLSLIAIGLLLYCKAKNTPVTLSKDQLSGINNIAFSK", "assay": "cell-based or functional assay"}, "[6]": {"biological_target": "F protein of RSV strain A2 (human respiratory syncytial virus …, UniProt P03420 26-574)", "sequence (P03420 26-574)": "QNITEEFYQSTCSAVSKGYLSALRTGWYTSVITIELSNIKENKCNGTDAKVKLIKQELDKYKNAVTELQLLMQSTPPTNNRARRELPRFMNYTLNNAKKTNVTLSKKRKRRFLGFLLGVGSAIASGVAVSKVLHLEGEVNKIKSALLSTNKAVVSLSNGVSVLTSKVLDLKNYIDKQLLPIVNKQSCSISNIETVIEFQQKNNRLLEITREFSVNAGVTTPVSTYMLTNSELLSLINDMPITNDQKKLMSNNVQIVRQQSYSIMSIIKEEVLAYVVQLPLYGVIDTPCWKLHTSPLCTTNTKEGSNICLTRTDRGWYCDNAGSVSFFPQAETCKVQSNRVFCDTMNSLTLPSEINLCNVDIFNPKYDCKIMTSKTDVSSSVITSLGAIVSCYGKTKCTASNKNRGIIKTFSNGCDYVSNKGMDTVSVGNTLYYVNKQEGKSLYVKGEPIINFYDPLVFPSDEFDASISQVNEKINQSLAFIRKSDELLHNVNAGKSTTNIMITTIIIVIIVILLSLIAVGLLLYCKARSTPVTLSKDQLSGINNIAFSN", "assay": "cell-based or functional assay"}}}
{"binder": "antibody 793 (clone 793) (antibody, human IgG1, kappa, V domains shown) VH: QVQLVESGGGLVKPGGSLRLSCAASGFPFGDYYMSWIRQAPGKGLEWVAYINRGGTTIYYADSVKGRFTISRDNAKNSLFLQMNSLRAGDTALYYCARGLILALPTATVELGAFDIWGQGTMVTVSS VL: DIQMTQSPSSLSASVGDRVTITCRASQSITGYLNWYQQKPGKAPKLLIYATSTLQSEVPSRFSGSGSGTDFTLTISSLQPEDFATYYCQQSYNTLTFGGGTKVEIKR", "values": [{"measurement": "binding result", "setting": "[1]", "result": "no binding"}, {"measurement": "EC50, PRNT with complement, RSV 18537", "setting": "[2]", "result": 0.09, "unit": "µg/mL"}, {"measurement": "EC50, PRNT with complement, RSV Long", "setting": "[3]", "result": 2.52, "unit": "µg/mL"}]}
{"binder": "antibody 855 (clone 855) (antibody, human IgG1, kappa, V domains shown) VH: QVQLVQSGPEVKKPGASVKVSCKASGYVLTNYAFSWVRQAPGQGLEWLGWISGSNGNTYYAEKFQGRVTMTTDTSTSTAYMELRSLRSDDTAVYFCARDLLRSTYFDYWGQGTLVTVSS VL: DIQMTQSPSSVSASVGDRVTITCRASQAISNWLAWYQQKPGKAPKLLIYAASSLQSGVPSRFSGSGSGTDFTLTISGLQPEDFATYYCQQADTFPFTFGPGTKVDIKR", "values": [{"measurement": "binding result", "setting": "[1]", "result": "no binding"}, {"measurement": "EC50, PRNT with complement, RSV Long", "setting": "[3]", "result": 6.35, "unit": "µg/mL"}]}
{"binder": "antibody 853 (clone 853) (antibody, human IgG1, kappa, V domains shown) VH: EVQLVQSGAEVKKPGQSLKISCKTSGYIFTNYWIGWVRQRPGKGLEWMGVIFPADSDARYSPSFQGQVTISADKSIGTAYLQWSSLKASDTAIYYCARPKYYFDSSGQFSEMYYFDFWGQGTLVTVSS VL: EIVLTQSPGTLSLSPGERATLSCRASQSVSSNYLAWYQQKPGQAPRLLIYGASSRAAGMPDRFSGSGSGTDFTLTISRLEPEDFAVYYCQQYGNSPLTFGGGTEVEIKR", "values": [{"measurement": "binding result", "setting": "[1]", "result": "no binding"}, {"measurement": "EC50, PRNT with complement, RSV 18537", "setting": "[2]", "result": 0.14, "unit": "µg/mL"}, {"measurement": "EC50, PRNT with complement, RSV Long", "setting": "[3]", "result": 1.49, "unit": "µg/mL"}, {"measurement": "EC50, PRNT with complement, RSV Long (new determination)", "setting": "[3]", "result": 0.13, "unit": "µg/mL"}]}
{"binder": "Palivizumab (Synagis) (antibody, V domains shown) VH: QVTLRESGPALVKPTQTLTLTCTFSGFSLSTSGMSVGWIRQPPGKALEWLADIWWDDKKDYNPSLKSRLTISKDTSKNQVVLKVTNMDPADTATYYCARSMITNWYFDVWGAGTTVTVSS VL: DIQMTQSPSTLSASVGDRVTITCKCQLSVGYMHWYQQKPGKAPKLLIYDTSKLASGVPSRFSGSGSGTEFTLTISSLQPDDFATYYCFQGSGYPFTFGGGTKLEIK", "values": [{"measurement": "EC50, PRNT with complement, RSV Long", "setting": "[4]", "result": 0.14, "unit": "µg/mL"}, {"measurement": "EC50, PRNT with complement, RSV 18537", "setting": "[5]", "result": 0.2, "unit": "µg/mL"}, {"measurement": "EC50, PRNT with complement, RSV A2", "setting": "[6]", "result": 0.15, "unit": "µg/mL"}]}
{"binder": "antibody 856 (clone 856) (antibody, human IgG1, kappa, V domains shown) VH: QVQLVQSGAEVKKPGASVKVSCKASGYTFSNYGFSWVRQAPGRGLEWMGWISAYNGNTYYAQNLQGRVTMTTDTSTTTAYMVLRSLRSDDTAMYYCARDGNTAGVDMWSRDGFDIWGQGTMVTVSS VL: DIVMTQTPLSLPVTPGEPASISCRSSQSLLDSNDGNTYLDWYLQKPGQSPQLLIYTFSYRASGVPDRFSGSGSGTDFTLKISRVEAEDVGVYYCMQRIEFPYTFGQGTKLEIKR", "values": [{"measurement": "binding result", "setting": "[1]", "result": "no binding"}]}
{"binder": "antibody 888 (clone 888) (antibody, human IgG1, kappa, V domains shown) VH: QLQLQESGPGLVKPSETLSLTCTASGGSINSSNFYWGWIRQPPGKGLEWIGSIFYSGTTYYNPSLKSRVTISVDTSKNQFSLKLSPVTAADTAVYHCARHGFRYCNNGVCSINLDAFDIWGQGTMVTVSS VL: DIVMTQSPLSLPVTPGAPASISCRSSQSLLRTNGYNYLDWYLQKPGQSPQLLIYLGSIRASGVPDRFSGSGSGTDFTLKISRVEAEDVGVYYCMQSLQTSITFGQGTRLEIKR", "values": [{"measurement": "binding result", "setting": "[1]", "result": "no binding"}, {"measurement": "EC50, PRNT with complement, RSV Long", "setting": "[3]", "result": 0.14, "unit": "µg/mL"}]}
